According to article PMC11029812, “Liver-targeted polymeric prodrugs delivered subcutaneously improve tafenoquine therapeutic window for malaria radical cure” (Science Advances, 2024):
pIC50: −log10 of the molar value.

Legend:
[1] = system: P. cynomolgi hypnozoites; assay: P. cynomolgi anti-hypnozoite assay in primary NHP hepatocytes (radical cure mode); format: cell-based; conditions: treatment days 4 to 7 after infection, readout day 8
Description: (§1) Cryopreserved primary cynomolgus monkey hepatocytes (lot STX) and hepatocyte culture medium (HCM) (InVitroGro CP medium) were obtained from BioIVT Inc. (Baltimore, MD, USA) and thawed following the manufacturer’s recommendations. Hepatocytes were seeded in 384-well collagen-coated plates and used for experiments within 2 days after seeding as previously described ([52]). Infectious sporozoites were obtained from Anopheles dirus mosquitoes infected with P. cynomolgi B strain and were used to infect the plated primary NHP hepatocytes 2 days after seeding ([52], [102]). HCM was changed the day after infection and every other day thereafter until drug treatment. […]
(§2) Imaging and image analysis of assay plates were completed using an Operetta CLS high-content imaging system and Harmony 4.9 software (PerkinElmer, Waltham, MA, USA). […] Using similar methodology described previously, parasites were counted with the TRITC channel and were identified by area, mean intensity, maximum intensity, and cell roundness parasites ([50], [99]–[102]). […] Percent inhibition (PI) and toxicity values were calculated relative to in-plate negative controls for parasites and hepatocytes, respectively, using GraphPad Prism software (GraphPad Software Inc., USA, Windows version 9.5.1) using the average of experimental and biological replicates. […]

[2] = Tissue pharmacokinetics of released TQ and its metabolites in liver, plasma and urine (LC-MS/MS); format: in vivo, BALB/c mice; conditions: mouse, in vivo
[3] = system: primary NHP hepatocytes; assay: Hepatocyte toxicity in the P. cynomolgi anti-hypnozoite assay; format: cell-based, cynomolgus monkey; conditions: treatment days 4 to 7 after infection, readout day 8
Description: as §1, §2

Substance: p(GalNAc-MA-co-SVCTQ-MA) [pSVCTQ]
- pIC50 [1]: 4.59
- AUC, liver ([2]; iv, 25 mg/kg): 2550 μg/g liver*hour
- AUC, plasma ([2]; iv, 25 mg/kg): 15.53 μg/ml plasma* hour
- Cmax, liver ([2]; iv, 25 mg/kg): 57 μg/g liver
- Cmax, plasma ([2]; iv, 25 mg/kg): 0.20 μg/ml plasma
- Liver:plasma AUC ratio ([2]; iv, 25 mg/kg): 164
- Tmax, liver ([2]; iv, 25 mg/kg): 8 h
- Tmax, plasma ([2]; iv, 25 mg/kg): 2 h
- OQTQ metabolite in urine ([2]; sc): high level
- Reduction of the Cmax of TQ in blood ([2]; sc): over 75%
- Reduction of the blood AUC over 14 days ([2]; sc): more than 50%
- AUC, liver ([2]; sc, 10 mg/kg): 2422 μg/g liver*hour
- AUC, plasma ([2]; sc, 10 mg/kg): 9.617 μg/ml plasma* hour
- CTQ metabolite in plasma ([2]; sc, 10 mg/kg): absence
- Cmax, liver ([2]; sc, 10 mg/kg): 25 μg/g liver
- Cmax, plasma ([2]; sc, 10 mg/kg): 0.10 μg/ml plasma
- Liver:plasma AUC ratio ([2]; sc, 10 mg/kg): 252
- OQTQ metabolite in plasma ([2]; sc, 10 mg/kg): low
- Tmax, liver ([2]; sc, 10 mg/kg): 8 h
- Tmax, plasma ([2]; sc, 10 mg/kg): 24 h
- pIC50 [3]: < 3.79
